The target of assay [1] is HA of A/mallard/Alberta/35/1976 (influenza A virus A/mallard/Alberta/35/1976). Description: BLI. (In general: BLI is a label-free optical method that tracks binding on a fibre tip over time.)
For assay [2], the target named is HA of A/New Caledonia/20/1999 (influenza A virus A/New Caledonia/20/1999) (UniProt Q6WG00).

As to C05 WT (antibody), in assay [1], the Kd (as a rule, the free concentration of one partner at which half of the binding sites on the other are occupied at equilibrium, for simple one-to-one binding) stood at 511 nM; the off-rate constant (koff) (in general, a measure of how fast the partners let go of each other) amounted to 0.0021 s⁻¹; the on-rate (kon) (as a rule, the rate constant with which the complex forms) is 4100 M⁻¹ s⁻¹. The HAI, antibody concentration at the endpoint titer; virus A/New Caledonia/20/1999 in assay [2] is 0.2 µg/mL.

The values are drawn from paper PMC6358683.
